Laboratory results taken from publication PMC4672880.

Target: GCNt stabilized pre-fusion soluble version of the NiV-F glycoprotein (NiV-sFGCNt) (Nipah virus) (UniProt Q9IH63)
Test: crystal structure

GCNt stabilized pre-fusion soluble version of the NiV-F glycoprotein (NiV-sFGCNt) (from UniProt Q9IH63 27-488) (domain or fragment)
stoichiometry N: 3
